From patent publication US20230023414A1, “METHODS AND DEVICES FOR TREATING A DISEASE WITH BIOTHERAPEUTICS” (PROGENITY, INC., priority 2018, published 2023)
Several values for one entry are separate records, joined by “and”; a condition that tells them apart may be missing. Identical values can stand only once. Like-named read-outs stand apart in the source and are kept apart here. Marks after values point to notes of the source that are not given here.

What was measured:
[1] = cited from earlier work; for Baseline dose: Bioavail.: dose info for non-approved agents from clinical trial information
[2] = pig, in vivo; for (AUC)T0-T240 h ± SEM / Tmax: 1.2 mg
[3] = Pharmacokinetics (blood insulin) of regular human insulin (NOVOLIN R) after subcutaneous or intra-jejunal jet delivery in swine; assay type: in vivo, Yorkshire female swine; conditions: for Cmax / Tmax: blood insulin
Method: (§1) A total of 18 Yorkshire female swine in good health and weighing 60-70 kg each were included in this study. Swine were divided into two groups with 9 animals per group. […] A sham surgical laparotomy was performed. […] The jet delivery device was configured with the single nozzle in an axial orientation.
Swine were divided into two groups with 9 animals per group. […] In all 18 animals, a laparotomy procedure was performed to expose the abdominal cavity. Animals remained under anesthesia during the entire procedure for the PK/PD study.
For the laparotomy in group 02, a small segment of the jejunal mucosa and serosa was exposed by midline laparotomy and the jet delivery device was inserted through antimesenteric incision.
(§2) Blood samples were kept on wet ice until centrifugation and separation of plasma. […] Glucose was monitored every five (5) minutes during the study by portable glucose analyzer (StatStrip (SS) hospital glucose monitoring system (Nova Biomedical, Waltham, Mass.)). At each time point, approximate 0.1 mL of blood was drawn and immediately placed on a glucose monitoring test strip, and the whole blood glucose concentration was measured by the SS in triplicate.
The animals were anesthetized for the entire ECP.

blood glucose = assay: Euglycemic clamp procedure: blood glucose and dextrose infusion after NOVOLIN R SC or IJ in swine; assay type: in vivo, Yorkshire female swine; conditions: for mean blood glucose level: euglycemic clamp, swine
Method: as §1, with “orientation. The device was held in place during the laparotomy insertion, and the nozzle outlet was directed to face the jejunal wall to direct the jet of the NOVOLIN® R to the GI tract.” for “orientation.”
as §2
A euglycemic clamp procedure (ECP) was employed to compare pharmacokinetics and pharmacodynamics of regular human Insulin (NOVOLIN® R) delivered subcutaneously (SC) in the neck versus intra-jejunally (IJ) by the jet delivery device in the small intestine. ECP was used to quantify the amount of glucose required to maintain normoglycemia after exogenous bolus of insulin. […] The animals were anesthetized for the entire ECP.

[4] = cited from earlier work
[5] = IJ administration by jet delivery device, swine, Average
[6] = IJ administration by jet delivery device, swine, individual animals
[7] = SC administration, swine, Average
[8] = SC administration, swine, individual animals

## CC[C@H](C)[C@H](NC(=O)[C@H](Cc1ccccc1)NC(=O)[C@H](CCC(=O)O)NC(=O)[C@H](CCCCNC(=O)COCCOCCNC(=O)COCCOCCNC(=O)CC[C@H](NC(=O)CCCCCCCCCCCCCCCCC(=O)O)C(=O)O)NC(=O)[C@H](C)NC(=O)[C@H](C)NC(=O)[C@H](CCC(N)=O)NC(=O)CNC(=O)[C@H](CCC(=O)O)NC(=O)[C@H](CC(C)C)NC(=O)[C@H](Cc1ccc(O)cc1)NC(=O)[C@H](CO)NC(=O)[C@H](CO)NC(=O)[C@@H](NC(=O)[C@H](CC(=O)O)NC(=O)[C@H](CO)NC(=O)[C@@H](NC(=O)[C@H](Cc1ccccc1)NC(=O)[C@@H](NC(=O)CNC(=O)[C@H](CCC(=O)O)NC(=O)C(C)(C)NC(=O)[C@@H](N)Cc1cnc[nH]1)[C@@H](C)O)[C@@H](C)O)C(C)C)C(=O)N[C@@H](C)C(=O)N[C@@H](Cc1c[nH]c2ccccc12)C(=O)N[C@@H](CC(C)C)C(=O)N[C@H](C(=O)N[C@@H](CCCNC(=N)N)C(=O)NCC(=O)N[C@@H](CCCNC(=N)N)C(=O)NCC(=O)O)C(C)C [Semaglutide]
[1]; SC administration
  Approved Dosing Info: Bio Avail: 89%

## CC[C@H](C)[C@H](NC(=O)[C@H](CCC(=O)O)NC(=O)[C@H](CO)NC(=O)[C@@H](NC(=O)[C@@H](N)CO)C(C)C)C(=O)N[C@@H](CCC(N)=O)C(=O)N[C@@H](CC(C)C)C(=O)N[C@@H](CCSC)C(=O)N[C@@H](Cc1cnc[nH]1)C(=O)N[C@@H](CC(N)=O)C(=O)N[C@@H](CC(C)C)C(=O)NCC(=O)N[C@@H](CCCCN)C(=O)N[C@@H](Cc1cnc[nH]1)C(=O)N[C@@H](CC(C)C)C(=O)N[C@@H](CC(N)=O)C(=O)N[C@@H](CO)C(=O)N[C@@H](CCSC)C(=O)N[C@@H](CCC(=O)O)C(=O)N[C@@H](CCCN=C(N)N)C(=O)N[C@H](C(=O)N[C@@H](CCC(=O)O)C(=O)N[C@@H](Cc1c[nH]c2ccccc12)C(=O)N[C@@H](CC(C)C)C(=O)N[C@@H](CCCN=C(N)N)C(=O)N[C@@H](CCCCN)C(=O)N[C@@H](CCCCN)C(=O)N[C@@H](CC(C)C)C(=O)N[C@@H](CCC(N)=O)C(=O)N[C@@H](CC(=O)O)C(=O)N[C@H](C(=O)N[C@@H](Cc1cnc[nH]1)C(=O)N[C@@H](CC(N)=O)C(=O)N[C@@H](Cc1ccccc1)C(=O)O)C(C)C)C(C)C [teriparatide]
[1]; SC administration
  Approved Dosing Info: Bio Avail: 95%

## Dulaglutide: long-acting GLP-1 receptor agonist, about 63 kDa; GLP-1 analogue linked to modified human IgG4 Fc; TRULICITY solution 3 mg/mL
[2]
  AUCID (±SEM): 3890.00 ± 94.73 ng·h/mL
  Bioavailability relative to SC: 49.11 ± 0.08% ^a
  (AUC)T0-T240 h ± SEM: 4355.86 ± 1094.57 ^a ng · hr/mL
  Tmax: 8 h
[2]; iv
  Bioavailability relative to IV: 100%
  (AUC)T0-T240 h ± SEM: 16429.33 ± 600.93 ng·h/mL
  Tmax: 1 h
[2]; sc
  Bioavailability relative to SC: 100%
  (AUC)T0-T240 h ± SEM: 8869 ± 887.33 ng·h/mL
  Tmax: 6 h
[1]; SC administration
  Approved Dosing Info: Bio Avail: 65%

## Novolin® R: regular human insulin (recombinant), aqueous solution 100 units/mL with glycerol, metacresol, zinc chloride, pH 7.4
[3]; animal 18P18, SC administration group
  blood insulin level: significantly higher than the rest of the animals in the group
[3]; [5]
  Cmax: 77.40 uIU/mL
  Tmax: 55.63 min
[3]; [6]
  Cmax: 40.93 uIU/mL and 96.77 uIU/mL and 5.03 uIU/mL and 7.96 uIU/mL and 48.77 uIU/mL and 85.38 uIU/mL and 207.96 uIU/mL and 126.39 uIU/mL
  Tmax: 20 min and 50 min and 90 min (2×) and 40 min (3×)
[3]; [7]
  Cmax: 202.94 uIU/mL
  Tmax: 87.14 min
[3]; [8]
  Cmax: 451.00 uIU/mL and 60.74 uIU/mL and 354.00 uIU/mL and 356.60 uIU/mL and 65.71 uIU/mL and 59.18 uIU/mL and 73.34 uIU/mL
  Tmax: 50 min (2×) and 180 min and 105 min and 30 min and 120 min
[3]; jejunum administration group
  time to maximum plasma concentration (Tmax): 0.9272 h
[3]; subcutaneous administration group
  time to maximum plasma concentration (Tmax): 1.452 h
[3]; swine
  maximum plasma concentration Cmax, SC group versus IJ group: higher than that of the IJ administration group
[3]; swine, AUC0-420 min
  AUC of blood insulin, SC group versus IJ group: higher than that of the IJ administration group
Blood glucose; 75 minutes to 420 minutes post-administration
  mean dextrose infusion rate, IJ versus SC group: higher in the SC administration group
Blood glucose; IJ administration group (jet delivery device)
  mean blood glucose level: 89.6 mg/dL
Blood glucose; SC administration group
  mean blood glucose level: 83.5 mg/dL
Blood glucose; first 70 minutes after administration
  mean dextrose infusion rate, IJ versus SC group: higher in the IJ administration group

## alirocumab
[1]; SC administration
  Approved Dosing Info: Bio Avail: 85%

## certolizumab pegol
[1]; SC administration
  Approved Dosing Info: Bio Avail: 80%

## dalteparin
[4]
  stability at room temperature: stable at room temperature
[1]; SC injection
  bioavailability by SC injection: approximately 87%
[1]; in vivo
  half-life: 3 to 5 h

## denosumab
[1]; SC administration
  Approved Dosing Info: Bio Avail: 61%

## etanercept
[1]; SC administration
  Approved Dosing Info: Bio Avail: 58%

## glucagon (SC)
[1]; SC administration
  Baseline dose: Bioavail.: 100.0%

## golimumab
[1]; SC administration
  Approved Dosing Info: Bio Avail: 51%

## natalizumab
[1]; IV administration
  Approved Dosing Info: Bio Avail: 100%

## sargramostim
[1]; IV administration
  Approved Dosing Info: Bio Avail: 100%

## secukinumab
[1]; SC administration
  Approved Dosing Info: Bio Avail: 73%

## somatropin
[1]; SC administration
  Baseline dose: Bioavail.: 80.5%

## tocilizumab
[1]; SC administration
  Approved Dosing Info: Bio Avail: 80%

## ustekinumab
[1]; SC administration
  Approved Dosing Info: Bio Avail: 78%

## vedolizumab
[1]; IV administration
  Approved Dosing Info: Bio Avail: 100%
